Patent US20240368249A1 (INTERVET, published 2024)

Key:
[1] = biological target: T1, canine IL-4 (canine, UniProt O77762 25-132, biotin-labeled in the OCTET assay); test: cell-based or functional assay
T1 sequence (looked up): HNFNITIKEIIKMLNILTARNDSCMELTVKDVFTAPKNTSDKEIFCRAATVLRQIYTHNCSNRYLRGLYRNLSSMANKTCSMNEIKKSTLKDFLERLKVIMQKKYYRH

[2] = biological target: T2, canine IL-13 (canine, UniProt Q9N0W9 19-131, limits assumed, biotin-labeled in the OCTET assay); test: BLI (OCTET HTX), biotin-cIL-13 on SA biosensors
T2 construct: also called cIL-13; canine Interleukin-13
T2 sequence (looked up): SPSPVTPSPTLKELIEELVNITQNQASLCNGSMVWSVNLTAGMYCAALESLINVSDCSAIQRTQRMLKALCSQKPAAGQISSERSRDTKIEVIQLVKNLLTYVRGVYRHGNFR
Description: (§1) The binding constants for the cFc fusion proteins provided in Tables 3 and 4 below, were determined using OCTET® HTX. All kinetics measurements were performed by OCTET® HTX using SA® biosensors and DATA ACQUISITION® 12.0 software. 10 μg/mL of biotin-labeled antigen, either canine IL-4 (cIL-4) or canine IL-13 (cIL-13) were loaded onto the SA® biosensors for 120 seconds. Next, the biosensors were placed into 1×pH 7.0 TBS/Casein buffer for 60 seconds for the blocking phase. For the association phase, antigen loaded biosensors were placed into 2-fold serial dilutions from 1 μM down to 15.6 nM of the wild-type, the bispecific, or the FcRn-mutant receptor Fc-fusions that recognized the cIL-4 or cIL-13 antigen in 1×pH 7.0 TBS/Casein buffer for 30 seconds. The last well was buffer alone and that sensor was used for reference sensor subtraction. Finally, the biosensors were placed into 1×pH 7.0 TBS/Casein buffer for 120 seconds for the dissociation phase. The results were then analyzed using Data Analysis 12.0 software and the curves were fitted using a 1:1 binding model.

[3] = biological target: T1, canine IL-4; test: BLI (OCTET HTX), biotin-cIL-4 on SA biosensors
Description: as §1

| Binder | IC50 for inhibition of cIL-4 mediated STAT6 phosphorylation in DH82 cells, against that of cIL4Rα-cFc or cIL4Rα-IL13Rα1_ZW1-cFc [1] | fold tighter binding against the unmodified IL-13Rα1-cFc [2] | fold change of KD against the unmodified cIL-4Rα-cFc homodimer [3] |
| --- | --- | --- | --- |
| cIL-4Rα-13Rα2_ZW1-cFc (Fc fusion) chain 1: VKVLHEPSCFSDYISTSVCQWKMDHPTNCSAELRLSYQLDFMGSENHTCVPENREDSVCVCSMPIDDAVEADVYQLDLWAGQQLLWSGSFQPSKHVKPRTPGNLTVHPNISHTWLLMWTNPYPTENHLHSELTYMVNVSNDNDPEDFKVYNVTYMGPTLRLAASTLKSGASYSARVRAWAQTYNSTWSDWSPSTTWLNYYEPWEQHLPPKRENGRVPRPPDCPKCPAPEMLGGPSVFIFPPKPKDTLLIARTPEVTCVVVDLDPEDPEVQISWFVDGKQMQTAKTQPREEQFNGTYRVVSVLPIGHQDWLKGKQFTCKVNNKALPSPIERTISKARGQAHQPSVYVYPPSREELSKNTVSLTCLIKDFFPPDIDVEWQSNGQQEPESKYRTTPPQLDEDGSYALVSKLSVDKSRWQRGDTFICAVMHEALHNHYTQESLSHSPGK chain 2: SMLSNAEIKVNPPQDFEIVDPGYLGYLSLQWQPPLFPDNFKECTIEYELKYRNIDSENWKTIITKNLHYKDGFDLNKGIEAKINTLLPAQCTNGSEVRSSWAETTYWTSPQGNRETKIQDMDCVYYNWQYLVCSWKPGMGVHFDTNYQLFYWYEGLDHSAECTDYIKVNGKNMGCRFPYLESSDYKDFYICVNGSSESQPIRPSYFIFQLQNIVKPMPPDYLSLTVKNSEEINLKWNMPKGPIPAKCFIYEIEFTEDGTTWVTTTVENEIQITRTSNESQKLCFLVRSKVNIYCSDDGIWSEWSDEQCWKGDIWKETPKRENGRVPRPPDCPKCPAPEMLGGPSVFIFPPKPKDTLLIARTPEVTCVVVDLDPEDPEVQISWFVDGKQMQTAKTQPREEQFNGTYRVVSVLPIGHQDWLKGKQFTCKVNNKALPSPIERTISKARGQAHQPSVYVLPPSREELSKNTVSLLCLIKDFFPPDIDVEWQSNGQQEPESKYLTWPPQLDEDGSYFLYSKLSVDKSRWQRGDTFICAVMHEALHNHYTQESLSHSPGK | > 3 orders of magnitude higher | – | – |
| cIL-4Rα-13Rα1_ZW1-cFc (Fc fusion, Bispecific heterodimer; also called cIL4Rα-IL13Rα1_ZW1-cFc; cIL-4Rα-IL-13Rα1_ZW1-cFc) chain 1: VKVLHEPSCFSDYISTSVCQWKMDHPTNCSAELRLSYQLDFMGSENHTCVPENREDSVCVCSMPIDDAVEADVYQLDLWAGQQLLWSGSFQPSKHVKPRTPGNLTVHPNISHTWLLMWTNPYPTENHLHSELTYMVNVSNDNDPEDFKVYNVTYMGPTLRLAASTLKSGASYSARVRAWAQTYNSTWSDWSPSTTWLNYYEPWEQHLPPKRENGRVPRPPDCPKCPAPEMLGGPSVFIFPPKPKDTLLIARTPEVTCVVVDLDPEDPEVQISWFVDGKQMQTAKTQPREEQFNGTYRVVSVLPIGHQDWLKGKQFTCKVNNKALPSPIERTISKARGQAHQPSVYVYPPSREELSKNTVSLTCLIKDFFPPDIDVEWQSNGQQEPESKYRTTPPQLDEDGSYALVSKLSVDKSRWQRGDTFICAVMHEALHNHYTQESLSHSPGK chain 2: GGVAAPTETQPPVTNLSVSVENLCTVIWTWDPPEGASPNCTLRYFSHFDNKQDKKIAPETHRSKEVPLNERICLQVGSQCSTNESDNPSILVEKCTPPPEGDPESAVTELQCVWHNLSYMKCTWLPGRNTSPDTNYTLYYWHSSLGKILQCEDIYREGQHIGCSFALTNLKDSSFEQHSVQIVVKDNAGKIRPSFNIVPLTSHVKPDPPHIKRLFFQNGNLYVQWKNPQNFYSRCLSYQVEVNNSQTETNDIFYVEEAKCQNSEFEGNLEGTICFMVPGVLPDTLNTVRIRVRTNKLCYEDDKLWSNWSQAMSIGENTDPTPKRENGRVPRPPDCPKCPAPEMLGGPSVFIFPPKPKDTLLIARTPEVTCVVVDLDPEDPEVQISWFVDGKQMQTAKTQPREEQFNGTYRVVSVLPIGHQDWLKGKQFTCKVNNKALPSPIERTISKARGQAHQPSVYVLPPSREELSKNTVSLLCLIKDFFPPDIDVEWQSNGQQEPESKYLTWPPQLDEDGSYFLYSKLSVDKSRWQRGDTFICAVMHEALHNHYTQESLSHSPGK | – | 8 fold tighter | ~10000 fold higher |
